Where two headings read alike, the source gives them in different places.
What was measured:
SEC [1] = target: the molecule itself; test: SEC
SEC [2] = target: the molecule itself; test: SEC; remark: listed apart in the source

Protein	stoichiometry N (SEC [1])	stoichiometry N (SEC [2])
CstB^Rhod (isolated C-terminal rhodanese domain of CstB, residues 347-444) (domain or fragment, Staphylococcus aureus strain Newman, UniProt G5ELA4 347-444, looked up) SGISTQSVHSADMTGKEEHVLDVRNDEEWNNGHLDQAVNIPHGKLLNENIPFNKEDKIYVHCQSGVRSSIAVGILESKGFENVVNIREGYQDFPESLK	~3	
Staphylococcus aureus strain Newman CstB, wild-type, full-length (enzyme, UniProt G5ELA4 1-444, looked up) MFFKQFYDNHLSQASYLVGCQRTGEAIIIDPVRDLSKYIEVADSEGLTITQATETHIHADFASGIRDVAKRLNANIYVSGEGEDALGYKNMPSKTQFVKHGDIIQVGNVKLEVLHTPGHTPESISFLLTDLGGGSSVPMGLFSGDFIFVGDIGRPDLLEKSVQIKGSTEISAKQMYESVQNIKNLPDYVQIWPGHGAGSPCGKALGAIPISTIGYEKINNWAFNEIDETKFIESLTSNQPAPPHHFAQMKQVNQFGMNLYQSYDVYPSLDNKRVAFDLRSKEAFHGGHTKGTINIPYNKNFINQIGWYLDFEKDIDLIGDKSTVEKAKHTLQLIGFDKVAGYRLPKSGISTQSVHSADMTGKEEHVLDVRNDEEWNNGHLDQAVNIPHGKLLNENIPFNKEDKIYVHCQSGVRSSIAVGILESKGFENVVNIREGYQDFPESLK		4
C201S CstB, full-length (enzyme) MFFKQFYDNHLSQASYLVGCQRTGEAIIIDPVRDLSKYIEVADSEGLTITQATETHIHADFASGIRDVAKRLNANIYVSGEGEDALGYKNMPSKTQFVKHGDIIQVGNVKLEVLHTPGHTPESISFLLTDLGGGSSVPMGLFSGDFIFVGDIGRPDLLEKSVQIKGSTEISAKQMYESVQNIKNLPDYVQIWPGHGAGSPSGKALGAIPISTIGYEKINNWAFNEIDETKFIESLTSNQPAPPHHFAQMKQVNQFGMNLYQSYDVYPSLDNKRVAFDLRSKEAFHGGHTKGTINIPYNKNFINQIGWYLDFEKDIDLIGDKSTVEKAKHTLQLIGFDKVAGYRLPKSGISTQSVHSADMTGKEEHVLDVRNDEEWNNGHLDQAVNIPHGKLLNENIPFNKEDKIYVHCQSGVRSSIAVGILESKGFENVVNIREGYQDFPESLK	4	

Reference: publication PMC4874178 (Biochemistry, 2015)
